Results: patent US20230405119A1 (published 2023)
Residue numbers refer to the chain shown, from its start.

Biological target: IL13ra2-Fc
Test: yeast display flow cytometry titration

B1: RLK (ligand)
chain: GPVPPSTALRRLIEELVNITQNQKAPLCNGSMVWSINLTAGMYCAALESLINVSGCSAIEKTQRMLSGFCPHKVSAGQFSSLHVRDTKILVAQFVKDLLLHLKKLFKEGRFN
B1 was tested, and the Kd was 480 nM.

B2: YLK (ligand)
chain: B1 chain with R11Y
B2 gave a Kd of 200 nM.
